Measured values published in publication PMC7397750, “Angiopoietin-like protein 8 differentially regulates ANGPTL3 and ANGPTL4 during postprandial partitioning of fatty acids[S]” (Journal of Lipid Research, 2020).
Values joined by “and” are separate entries in the source; they are usually repeats but may differ in a detail not shown here. Equal values may be shown once. Values belong to the molecule of their own block, whether it stands above or below them.

T1: ANGPTL8 (angiopoietin-like protein 8), endogenous in human serum (human (endogenous in serum), UniProt Q6UXH0 22-198)
T1 construct: ANGPTL8, human, circulating protein of donor serum; also called ANGPLT8; source: endogenous, human serum
T1 sequence (looked up): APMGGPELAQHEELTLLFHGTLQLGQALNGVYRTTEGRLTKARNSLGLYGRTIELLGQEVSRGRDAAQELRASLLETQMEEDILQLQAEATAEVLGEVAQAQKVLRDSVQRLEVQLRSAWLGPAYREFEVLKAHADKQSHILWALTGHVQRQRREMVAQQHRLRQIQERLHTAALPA

B1: LPL (lipoprotein lipase), avidin-tagged (enzyme)
chain: DRITGGKDFRDIESKFALRTPEDTAEDTCHLIPGVTESVANCHFNHSSKTFVVIHGWTVTGMYESWVPKLVAALYKREPDSNVIVVDWLSRAQQHYPVSAGYTKLVGQDVAKFMNWMADEFNYPLGNVHLLGYSLGAHAAGIAGSLTNKKVNRITGLDPAGPNFEYAEAPSRLSPDDADFVDVLHTFTRGSPGRSIGIQKPVGHVDIYPNGGTFQPGCNIGEALRVIAERGLGDVDQLVKCSHERSVHLFIDSLLNEENPSKAYRCNSKEAFEKGLCLSCRKNRCNNMGYEINKVRAKRSSKMYLKTRSQMPYKVFHYQVKIHFSGTESNTYTNQAFEISLYGTVAESENIPFTLPEVSTNKTYSFLLYTEVDIGELLMLKLKWISDSYFSWSNWWSSPGFDIGKIRVKAGETQKKVIFCSREKMSYLQKGKSPVIFVKCHDKSLNRKSG
modifications: biotin/Avi-type tag ('avidin-tagged') for capture on streptavidin, tag omitted; N-glycosylated. The species is not printed. The BLI methods give LPL as from Sigma, whose usual LPL is purified from …
B2: C-terminal HIS-tagged ANGPTL4 (natural protein, human, UniProt Q9BY76-1 26-406, looked up)
chain: GPVQSKSPRFASWDEMNVLAHGLLQLGQGLREHAERTRSQLSALERRLSACGSACQGTEGSTDLPLAPESRVDPEVLHSLQTQLKAQNSRIQQLFHKVAQQQRHLEKQHLRIQHLQSQFGLLDHKHLDHEVAKPARRKRLPEMAQPVDPAHNVSRLHRLPRDCQELFQVGERQSGLFEIQPQGSPPFLVNCKMTSDGGWTVIQRRHDGSVDFNRPWEAYKAGFGDPHGEFWLGLEKVHSITGDRNSRLAVQLRDWDGNAELLQFSVHLGGEDTAYSLQLTAPVAGQLGATTVPPSGLSVPFSTWDQDHDLRRDKNCAKSLSGGWWFGTCSHSNLNGQYFRSIPQQRQKLKKGIFWKTWRGRYYPLQATTMLIQPMAAEAAS
B3: ANGPTL4 (angiopoietin-like protein 4), endogenous in human serum, N-terminally intact (natural protein, human (endogenous in serum), UniProt Q9BY76-1 26-406, looked up)
chain: B2 chain
notes: ANGPTL4, human, circulating protein of donor serum precipitated or captured with an N-terminal ANGPTL4 antibody; Full-length or N-terminal fragment; also called active ANGPTL4; source: endogenous, human serum
B4: recombinant ANGPTL4/8 complex (complex, human)
chain 1: B2 chain
chain 2: T1 sequence (looked up)
B5: C-terminal HIS-tagged ANGPTL3 (natural protein, human, UniProt Q9Y5C1 17-460, looked up)
chain: SRIDQDNSSFDSLSPEPKSRFAMLDDVKILANGLLQLGHGLKDFVHKTKGQINDIFQKLNIFDQSFYDLSLQTSEIKEEEKELRRTTYKLQVKNEEVKNMSLELNSKLESLLEEKILLQQKVKYLEEQLTNLIQNQPETPEHPEVTSLKTFVEKQDNSIKDLLQTVEDQYKQLNQQHSQIKEIENQLRRTSIQEPTEISLSSKPRAPRTTPFLQLNEIRNVKHDGIPAECTTIYNRGEHTSGMYAIRPSNSQVFHVYCDVISGSPWTLIQHRIDGSQNFNETWENYKYGFGRLDGEFWLGLEKIYSIVKQSNYVLRIELEDWKDNKHYIEYSFYLGNHETNYTLHLVAITGNVPNAIPENKDLVFSTWDHKAKGHFNCPEGYSGGWWWHDECGENNLNGKYNKPRAKSKPERRRGLSWKSQNGRLYSIKSTKMLIHPTDSESFE
notes: source: HEK293, transient, purified (Ni-NTA, SEC)
B6: recombinant ANGPTL3/8 complex (complex, human)
chain 1: B5 chain
chain 2: T1 sequence (looked up)

Experiments:
[1] = target: ANGPTL8 (angiopoietin-like protein 8), endogenous in human serum (human (endogenous in serum)) (UniProt Q6UXH0); assay: affinity purification with mass spectrometry; immunoprecipitation of endogenous complexes from human serum with biotinylated anti-ANGPTL antibodies and streptavidin magnetic beads; trypsin/Lys-C digest; LC-MRM with spiked stable-isotope-labelled peptides; molar ratios from two peptides for each protein
[2] = target: B4; assay: BLI; Octet RED96e; avidin-tagged LPL immobilised on streptavidin biosensors; 50 nM ANGPTL protein or complex; dissociation in buffer-only wells; details: both partners purified
[3] = target: B1; assay: cell-based or functional assay
[4] = target: T1, ANGPTL8 (angiopoietin-like protein 8), …; assay: affinity purification with mass spectrometry; immunoprecipitation of endogenous complexes from human serum with biotinylated anti-ANGPTL antibodies and streptavidin magnetic beads; trypsin/Lys-C digest; LC-MRM with spiked stable-isotope-labelled peptides; molar ratios from two peptides for each protein; details: partners not purified

stoichiometry N (ANGPTL3 per ANGPTL8 (protein ratio)) [1]: 3.4 and 3.5
Molecule: ANGPTL3 (angiopoietin-like protein 3), endogenous in human serum (natural protein)

Molecule: B1
Kd [2]: < 0.001 nM | koff [2]: < 1e-07 s⁻¹ | kon [2]: 48000 M⁻¹ s⁻¹

Molecule: B2
IC50 of inhibition of LPL enzymatic activity; human LPL-stable expression cells, BODIPY-TG (EnzChek) substrate [3]: 0.29 nM | IC50 of inhibition of LPL enzymatic activity; human LPL-stable expression cells, VLDL substrate, NEFA released [3]: 0.44 nM

Molecule: B3
stoichiometry N [4]: 0.8 ANGPTL4 per ANGPTL8 (protein ratio)

Molecule: B4
IC50 of inhibition of LPL enzymatic activity; human LPL-stable expression cells, BODIPY-TG (EnzChek) substrate [3]: 37 nM | IC50 of inhibition of LPL enzymatic activity; human LPL-stable expression cells, VLDL substrate, NEFA released [3]: 105 nM

Molecule: B5
IC50 of inhibition of LPL enzymatic activity; human LPL-stable expression cells, BODIPY-TG (EnzChek) substrate [3]: 26 nM

Molecule: B6
IC50 of inhibition of LPL enzymatic activity; human LPL-stable expression cells, BODIPY-TG (EnzChek) substrate [3]: 0.14 nM
